Laboratory results reported in US20160040149A1, “Compositions Having Dicamba Decarboxylase Activity and Methods of Use” (priority 2013, published 2016).

B1: 583 (protein)
chain: MAQGKVALEEHFAIPETLQDAAGFVPGDYWKELQHRLLDIQDTRLKEMDKHEIGTMILSLAAPAVQGIPDRRKAIELAKRANDFLAEEVAKRPDRFLAFAALPLQDPEAATEELQRCVNDLGFVGAMVNGFSQEGDGQTPLYYDLPQYRPFWKEVEKLDVPFYLHPRNPLPQDSRIYDGHPWLLGPTWAFAQETAVHALRLMASGLFDEHPRLNIILGHLGEGLPYMMYRIDHRIAWVKAPPRYPAKRRFMDYFLENFWITTSGNFRTQTLIDAILEIGADRILFSTDWPFENIDHAADWFAATSIAEADRVKIGRTNARRLFKLDVR
modifications: Dicamba decarboxylase variant
B2: 584 (protein)
chain: MAQGKVALEEHFAIPETLNDAAGFVPGDYWKELQHRLLDIQDTRLKEMDKHGIGTMILSLAAPAVQGIVDRRQAIEIAKRANDFLAEEVAKRPDRFLAFAALPLQDPDAATSELQRCVADLGFVGAMVNGFSQEGDGQTPLYYDLPQYRPFWKEVEKLDVPFYLHPRNPLPQDARIYDGHPWLLGPTWAFAQETAVHALRLMASGLFDEHPRLNIILGHMGEGLPYMMYRIDHRIAWVKAPPDYPAKRRFMDYFLENFHITTSGNFRTQTLIDAILEIGADRILFSTDWPFENIDHAADWFAATSIAEADRVKIGRTNARRLFKLDVR
modifications: Dicamba decarboxylase variant
B3: 581 (protein)
chain: MAQGLVALEEHFAIPETLQDAAGFVPGDYWKELQHRLLDIQDTRLKEMDKHEIGTMVLSLAAPAVQAIPDRRKAIELAKRANDFLAEEVAKRPDRFLAFAALPLQDVDAATSELQRCVADLGFVGAMVNGFSQEGDGQTPLYYDLPQYRPFWKEVEKLDVPFYLHPRNPLPQDARIYDGHPWLLGPTWAFAQETAVHALRLMASGLFDEHPRLNIILGHMGEGLPYMMYRIDHRIAWVKAPPDYPAKRRFMDYFLENFHITTSGNFRTQTLIDAILEIGADRILFSTDWPFENIDHAADWFAATSIAEADRVKIGRTNARRLFKLDGS
modifications: Dicamba decarboxylase variant
B4: 585 (protein)
chain: MAQGKVALEEHFAIPETLQDAAGFVPGDYWKELQHRLMDIQDTRLKEMDKHEIGTMVLSLAAPAVQAIPDRRKAIELAKRANDFLAEEVAKRPDRFLAFAALPMQDPEAATEELQRCVADLGFVGAMVNGFSQEGDGQTPLYYDLPQYRPFWGEVEKLDVPFYLHPRNPLPQDARIYDGHPWLLGPTWAFAQETAVHALRLMASGLFDEHPRLNIILGHMGEGLPYMMYRIDHRIAWVKAPPDYPAKRRFMDYFLENFWITTSGNFRTQTLIDAILEIGADRILFSTDWPFENIDHAADWFAATSIAEADRVKIGRTNARNLFKLDVS
modifications: Dicamba decarboxylase variant
B5: 582 (protein)
chain: MAQGLVALEEHFAIPETLNDAAGFVPGDYWKELQHRLMDIQDTRLKEMDKHEIGTMVLSLAAPAVQAIPDRRKAIEIARRANDFLAEEVAKRPDRFLAFAALPLQDPDAATEELQRCVNDLGFVGAMVNGFSQEGDGQTPLYYDLPQYRPFWGEVEKLDVPFYLHPRNPLPQDARIYDGHPWLLGPTWAFAQETAVHALRLMASGLFDEHPRLNIILGHMGEGLPYMMYRIDHRIAWVKAPPDYPAKRRFMDYFLENFHITTSGNFRTQTLIDAILEIGADRILFSTDWPFENIDHAADWFNATSIAEADRVKIGRTNARRLFKLDGS
modifications: Dicamba decarboxylase variant
B6: 586 (protein)
chain: MAQGLVALEEHFAIPETLQDAAGFVPGDYWKELQHRLLDIQDTRLKEMDKHEIGTMVLSLAAPAVQAIPDRRKAIELARRANDFLAEEVAKRPDRFLAFAALPLQDVDAATEELQRCVNDLGFVGAMVNGFSQEGDGQTPLYYDLPQYRPFWKEVEKLDVPFYLHPRNPLPQDSRIYDGHPWLLGPTWAFAQETAVHALRLMASGLFDEHPRLNIILGHLGEGLPYMMYRIDHRIAWVHAPPDYPAKRRFMDYFLENFHITTSGNFRTQTLIDAILEIGADRILFSTDWPFENIDHAADWFNATSIAEADRVKIGRTNARRLFKLDVR
modifications: Dicamba decarboxylase variant
B7: 98 (protein)
chain: MAIIDCHGHYTTAPAAHDAFRKAQIAHHDDPQQPAPQYPHISDDALRESIEQHQLRLLRERGADMTIFSPRASTMAHHIGNEAVSQVWTQRCNDLIARVVQLYPHTFIGVCQLPQSPGVPISHSIAELERCVNELGFVGCNLNPDPSGGHWNGVPLTDRAWYPFFEKMVELDVPAMVHVSGSCNANFHATGAHYLNADTTAFMQFLEGDLFRDFPSLRFIIPHGGGAVPYHWGRFRGLADMLGKPPLATHVMRNVFFDTCVYHQPGIDLLFEVIDIDNILFGSEMVGAVRGIDPQTGHYFDDTKRYIDALTISDADKRKVFEGNARRVYPRLDAQLRARGL
modifications: Xanthomonas campestris pv.
B8: 96 (protein)
chain: MAPLIVDVHTHVYPPAYMQMLRSRKTVPYVHDPSNNRDPRLIILSSDDDASIPLDQRGRPVDSSYWDINVKLSFMRQHGINCSVISLANPWLDFVEPAEAQMWAERINDDLEKTCATVNKAADPGNTLTLDQKETLFAFGALPLSAPSSESVVAEIKRLKTLEHLRGVIMGTSGLGKGLDDARLDPVWEALQETDMLMFLHPHYGLPEEAYGGPETTGRYGHVLPLALGFPLETTIAVTRMLLSGVFDRFPRLKILLAHSGGTLPFLAGRIESCILHERKFISGGGDVQGPQRSVWDVLKTNIYLDAVVYGKPGLEAAMTASGSDRLLFGTDHPFFPPLDSKDNSWPSVTTNYQAIHATFDTNSKTVADVLGGNAARILNLK
modifications: Aspergillus nidulans
B9: 104 (protein)
chain: MANILQEPIDFLKKEELKNIDLSQMSKKERYKIWKRIPKCELHCHLDLCFSADFFVSCIRKYNLQPNLSDEEVLDYYLFAKGGKSLGEFVEKAIKVADIFHDYEVIEDLAKHAVFNKYKEGVVLMEFRYSPTFVAFKYNLDIELIHQAIVKGIKEVVELLDHKIHVALMCIGDTGHEAANIKASADFCLKHKADFVGFDHGGHEVDLKEYKEIFDYVRESGVPLSVHAGEDVTLPNLNTLYSAIQVLKVERIGHGIRVAESQELIDMVKEKNILLEVCPISNVLLKNAKSMDTHPIRQLYDAGVKVSVNSDDPGMFLTNINDDYEELYTHLNFTLEDFMKMNEWALEKSFMDSNIKDKIKNLYF
modifications: Plasmodium Vivax
B10: 105 (protein)
chain: MAIDFHVHLDLYPDPVAVARACEERQLTVLSVTTTPAAWRGTLALAAGRPHVWTALGFHPEVVSERAADLPWFDRYLPETRFVGEVGLDGSPSLRGTWTQQFAVFQHILRRCEDHGGRILSIHSRRAESEVLNCLEANPRSGTPILHWYSGSVTELRRAISLGCWFSVGPTMVRTQKGAALIRSMPRDRVLTETDGPFLELDGQAALPWDVKSVVEGLSKIWQIPASEVERIVKENVSRLLGTVR
modifications: Deinococcus radiodurans
B11: 102 (protein, listed as Lactobacillus plantarum)
chain: MATKTFKTLDDFLGTHFIYTYDNGWEYEWYAKNDHTVDYRIHGGMVAGRWVTDQKADIVMLTEGIYKISWTEPTGTDVALDFMPNEKKLHGTIFFPKWVEEHPEITVTYQNEHIDLMEQSREKYATYPKLVVPEFANITYMGDAGQNNEDVISEAPYKEMPNDIRNGKYFDQNYHRLNK
B12: 99 (protein, listed as Ralstonia solanacearum)
chain: MAIIDCHGHFTTAPTALEDWRKRQIANLATPALGPSPDDLKISDDALTEAIRANQLRLMQARGSDLTIFSPRASFMAHHIGDFHTSATWAAICNALCHRVSQLFPDHFVGAAMLPQSPGVDIRTCIPELARCIVDYGFVGVNLNPDPSGGHWTSPPLSDPYWFPLYEKLVEYDVPAMIHVSTSCNACFHTTGAHYLNADTTAFMQVLTSDLFRRFPTLKFVIPHGGGAVPYHWGRFRGLAQELKTPPLQEHLLHNVFFDTCVYHQPGIDLLTRVIPVDNILFASEMIGAVRGIDPETGHPFDDTRRYIDQAHTLSAEDRHKIYEGNARRVYPRLDARLKARGR
B13: 97 (protein, listed as Sphingobium sp.)
chain: MAMMIIDCHGHYTVLPKAHDEWREQQKAAFKAGQPAPPYPEISDDEIRETIEANQLRLIKERGADMTIFSPRASAMAPHVGDQSVAVPWAQACNNLIARVVDLFPETFAGVCMLPQSPEADMTSSIAELERCVNELGFIGCNLNPDPGGGHFKHPPLTDRFWYPFYEKMVELDVPAMIHVSGSCNPAMHATGAYYLAADTIAFMQLLQGNLFADFPTLRFIIPHGGGAVPYHWGRFRGLADMLKQPSLDTLLMNNVFFDTCVYHQPGINLLADVIDNKNILFGSEMVGAVRGIDPTTGHYFDDTKRYIDALDISDQERHAIFEGNTRRVFPRLDAKLKARGL
B14: 101 (protein, listed as Aquifex aeolicus)
chain: MAQKIALCITGASGVIYGIKLLQVLEELDFSVDLVISRNAKVVLKEEHSLTFEEVLKGLKNVRIHEENDFTSPLASGSRLVHYRGVYVVPCSTNTLSCIANGINKNLIHRVGEVALKERVPLVLLVREAPYNEIHLENMLKITRMGGVVVPASPAFYHKPQSIDDMINFVVGKLLDVLRIEHNLYKRWRG
B15: 103 (protein)
chain: MAMEIPTEEIKFLKKEDVQNIDLNGMSKKERYEIWRRIPKVELHCHLDLTFSAEFFLKWARKYNLQPNMSDDEILDHYLFTKEGKSLAEFIRKAISVSDLYRDYDFIEDLAKWAVIEKYKEGVVLMEFRYSPTFVSSSYGLDVELIHKAFIKGIKNATELLNNKIHVALICISDTGHAAASIKHSGDFAIKHKHDFVGFDHGGREIDLKDHKDVYHSVRDHGLHLTVHAGEDATLPNLNTLYTAINILNVERIGHGIRVSESDELIELVKKKDILLEVCPISNLLLNNVKSMDTHPIRKLYDAGVKVSVNSDDPGMFLSNINDNYEKLYIHLNFTLEEFMIMNNWAFEKSFVSDDVKSELKALYF
modifications: Plasmodium yoelii yoelii
B16: 6 (protein)
chain: MAEILSPEESIYYSKLSNDILAEGIKKNPTRFRGFAALPTPDPIQAAMELERCIKLGGFVGAIINGHINGHYLDEIQFDPILEAADALDVPLYIHPAVPPKAIIDTYYKMNDTYAQTVMVSGGWGWHIETGVHVLRLISSGVFDRHPNLKIVIGHLGEGLPFFMHRLNNAIGGNLKKSYSTYLKENIYYTISGFNDPDLFQFVLKKVGENNIMFSSDYPFNFPKREVELFNELNISEEVREKISFKNAERILKI
modifications: Treponema brennaborense

Experiment: DNA shuffling libraries: 14CO2 capturing assay in 384-well format, fold activity of backbone (Megatable 2)
Conditions: relative to backbone SEQ ID NO: 509 (DDEC0810)

| Molecule | Fold Activity [fold] |
| --- | --- |
| B1 | 1.0 |
| B2 | 0.9 |
| B3 | 1.1 |
| B4 | 1.8 |
| B5 | 1.4 |
| B6 | 1.2 |

Experiment: Saturation mutagenesis of SEQ ID NO:109: dicamba decarboxylation activity of point mutants (CO2 released), fold of backbone (Tables 7, 8, Megatable 1)
Conditions: decarboxylation activity (CO2 released) of point mutant vs unmutated backbone protein; backbone SEQ ID NO: 109

| Molecule | Fold Activity [fold] |
| --- | --- |
| B7 | 2.3 |
| B8 | 1.1 |
| B9 | 2.1 |
| B10 | 0.9 |
| B11 | 2.6 |
| B12 | 1.7 |
| B13 | 2.9 |
| B14 | 1.8 |
| B15 | 1.7 |
| B16 | 0.9 |
